Data reported in PMC2151650.

Biological target: triadin (rabbit) (UniProt Q28820)
Assay: co-IP

Sequence of triadin (rabbit) (Q28820 whole entry): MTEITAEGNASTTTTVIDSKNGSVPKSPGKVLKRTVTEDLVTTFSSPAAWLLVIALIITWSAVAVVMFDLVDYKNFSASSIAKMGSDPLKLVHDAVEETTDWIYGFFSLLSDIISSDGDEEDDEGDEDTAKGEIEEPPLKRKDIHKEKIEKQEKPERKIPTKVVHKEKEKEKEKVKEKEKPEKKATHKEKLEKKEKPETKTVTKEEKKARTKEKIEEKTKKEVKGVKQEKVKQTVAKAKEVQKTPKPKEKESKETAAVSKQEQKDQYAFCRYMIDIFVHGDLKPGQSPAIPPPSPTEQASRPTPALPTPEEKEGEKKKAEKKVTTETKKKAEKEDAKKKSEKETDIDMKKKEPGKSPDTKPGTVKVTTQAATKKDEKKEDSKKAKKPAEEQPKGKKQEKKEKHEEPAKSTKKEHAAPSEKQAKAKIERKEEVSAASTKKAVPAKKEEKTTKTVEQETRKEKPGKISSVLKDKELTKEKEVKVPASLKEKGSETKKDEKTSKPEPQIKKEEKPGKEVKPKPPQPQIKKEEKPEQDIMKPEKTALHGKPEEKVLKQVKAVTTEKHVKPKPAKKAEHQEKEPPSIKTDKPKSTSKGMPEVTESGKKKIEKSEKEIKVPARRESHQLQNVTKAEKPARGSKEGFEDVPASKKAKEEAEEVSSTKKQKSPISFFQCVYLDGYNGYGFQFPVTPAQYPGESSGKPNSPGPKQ

With “RyR1 D4878A/D4907A, P11716 1-5037 (natural protein)” as the substance, how does the percent reduction in triadin binding against WT RyR1 read?
The percent reduction in triadin binding against WT RyR1 was 50%.
